The results in this text go back to the RNAGym collection of RNA variant scans (doi:10.1093/molbev/msab373).

B1: Azoarcus group I ribozyme (parent)
chain: GUGCCUUGCGCCGGGAAACCACGCAAGGGAUGGUGUCAAAUUCGGCGAAACCUAAGCGCCCGCCCGGGCGUAUGGCAACGCCGAGCCAAGCUUCGGCGCCUGCGCCGAUGAAGGUGUAGAGACUAGACGGCACCCACCUAAGGCAAACGCUAUGGUGAAGGCAUAGUCCAGGGAGUGGCGAAAGUCACACAAACCGG

This data set covers variants of B1. Briefly: reverse-splicing fitness (ratio to wild type); higher = more active; in vitro selection; Mg2+ level not given. The method in brief: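 An in vitro group I ribozyme library with randomized positions was T7-transcribed and gel-purified. In triplicate, 10 pmol RNA in EPPS pH 7.5 was reacted with 50 pmoles of a 30-nt RNA substrate for 1 h at 37 °C across several added MgCl2 levels (1–48 mM), then stopped with EDTA. Products were reverse transcribed from a substrate-complementary primer, PCR-amplified and sequenced (HiSeq 4000). Fitness is a variant's read proportion after selection over that before, normalised to wild type.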
As for GUGCCUUGCGCCGGGAAACCACGCAAGGGAUGGUGUCAAAUUCGGCGAAACCUAAGCGCCCGCCCGGGCGUAUGGCAACGCAGAGCCAAGCUUCGGCGCCUGCGCCGAUGAAGGUGUAGAGACUAGACGGCACCCACCUAAGGCUAACGGUAUGGUGAAGGCAUAGUCGAGGGAGGGGCGAAAGUCACACAAACCGG, the reverse-splicing fitness worked out at 0.0053.
As to GUGCCUUGCGCCGGGAAACCACGCAAGGGAUGGUGUCAAAUUCGGCGAAACCUAAGCGCCCGCCCGGGCGUAUGGCAACGCAGAGCCAAGCUUCGGCGCCUGCGCCGAUGAAGGUGUAGAGACUAGACGGCACCCACCUAAGGCUAACGGUAUGGUGAAGGCAUAGUCGAGGGAGAGGCGAAAGUCACACAAACCGG, the reverse-splicing fitness is 0.00926.
Take GUGCCUUGCGCCGGGAAACCACGCAAGGGAUGGUGUCAAAUUCGGCGAAACCUAAGCGCCCGCCCGGGCGUAUGGCAACGCAGAGCCAAGCUUCGGCGCCUGCGCCGAUGAAGGUGUAGAGACUAGACGGCACCCACCUAAGGCUAACGGUAUGGUGAAGGCAUAGUCGAGGGAGCGGCGAAAGUCACACAAACCGG: the reverse-splicing fitness was found to be 0.00607.
With GUGCCUUGCGCCGGGAAACCACGCAAGGGAUGGUGUCAAAUUCGGCGAAACCUAAGCGCCCGCCCGGGCGUAUGGCAACGCAGAGCCAAGCUUCGGCGCCUGCGCCGAUGAAGGUGUAGAGACUAGACGGCACCCACCUAAGGCUAACGGUAUGGUGAAGGCAUAGUCCAGGGAGGGGCGAAAGUCACACAAACCGG, the reverse-splicing fitness was 0.0081.
Then GUGCCUUGCGCCGGGAAACCACGCAAGGGAUGGUGUCAAAUUCGGCGAAACCUAAGCGCCCGCCCGGGCGUAUGGCAACGCAGAGCCAAGCUUCGGCGCCUGCGCCGAUGAAGGUGUAGAGACUAGACGGCACCCACCUAAGGCUAACGGUAUGGUGAAGGCAUAGUCCAGGGAGAGGCGAAAGUCACACAAACCGG, with 0.0365.
Then GUGCCUUGCGCCGGGAAACCACGCAAGGGAUGGUGUCAAAUUCGGCGAAACCUAAGCGCCCGCCCGGGCGUAUGGCAACGCAGAGCCAAGCUUCGGCGCCUGCGCCGAUGAAGGUGUAGAGACUAGACGGCACCCACCUAAGGCUAACGGUAUGGUGAAGGCAUAGUCCAGGGAGCGGCGAAAGUCACACAAACCGG, with 0.0521; and GUGCCUUGCGCCGGGAAACCACGCAAGGGAUGGUGUCAAAUUCGGCGAAACCUAAGCGCCCGCCCGGGCGUAUGGCAACGCAGAGCCAAGCUUCGGCGCCUGCGCCGAUGAAGGUGUAGAGACUAGACGGCACCCACCUAAGGCUAACGAUAUGGUGAAGGCAUAGUCAAGGGAGCGGCGAAAGUCACACAAACCGG, with 0.0105.
In the case of GUGCCUUGCGCCGGGAAACCACGCAAGGGAUGGUGUCAAAUUCGGCGAAACCUAAGCGCCCGCCCGGGCGUAUGGCAACGCAGAGCCAAGCUUCGGCGCCUGCGCCGAUGAAGGUGUAGAGACUAGACGGCACCCACCUAAGGCUAACGAUAUGGUGAAGGCAUAGUCAAGGGAGGGGCGAAAGUCACACAAACCGG, the reverse-splicing fitness amounted to 0.0053.
Regarding GUGCCUUGCGCCGGGAAACCACGCAAGGGAUGGUGUCAAAUUCGGCGAAACCUAAGCGCCCGCCCGGGCGUAUGGCAACGCAGAGCCAAGCUUCGGCGCCUGCGCCGAUGAAGGUGUAGAGACUAGACGGCACCCACCUAAGGCUAACGAUAUGGUGAAGGCAUAGUCAAGGGAGAGGCGAAAGUCACACAAACCGG, the reverse-splicing fitness came to 0.0129.
Consider GUGCCUUGCGCCGGGAAACCACGCAAGGGAUGGUGUCAAAUUCGGCGAAACCUAAGCGCCCGCCCGGGCGUAUGGCAACGCAGAGCCAAGCUUCGGCGCCUGCGCCGAUGAAGGUGUAGAGACUAGACGGCACCCACCUAAGGCUAACGAUAUGGUGAAGGCAUAGUCCAGGGAGCGGCGAAAGUCACACAAACCGG, for which the reverse-splicing fitness came out at 0.0555.
On to GUGCCUUGCGCCGGGAAACCACGCAAGGGAUGGUGUCAAAUUCGGCGAAACCUAAGCGCCCGCCCGGGCGUAUGGCAACGCAGAGCCAAGCUUCGGCGCCUGCGCCGAUGAAGGUGUAGAGACUAGACGGCACCCACCUAAGGCUAACGAUAUGGUGAAGGCAUAGUCCAGGGAGGGGCGAAAGUCACACAAACCGG, for which the reverse-splicing fitness was determined as 0.0181.
As for GUGCCUUGCGCCGGGAAACCACGCAAGGGAUGGUGUCAAAUUCGGCGAAACCUAAGCGCCCGCCCGGGCGUAUGGCAACGCAGAGCCAAGCUUCGGCGCCUGCGCCGAUGAAGGUGUAGAGACUAGACGGCACCCACCUAAGGCUAACGAUAUGGUGAAGGCAUAGUCCAGGGAGAGGCGAAAGUCACACAAACCGG, the figure is 0.0485; as for GUGCCUUGCGCCGGGAAACCACGCAAGGGAUGGUGUCAAAUUCGGCGAAACCUAAGCGCCCGCCCGGGCGUAUGGCAACGCAGAGCCAAGCUUCGGCGCCUGCGCCGAUGAAGGUGUAGAGACUAGACGGCACCCACCUAAGGCUAACGGUAUGGUGAAGGCAUAGUCUAGGGAGAGGCGAAAGUCACACAAACCGG, 0.00877.
Regarding GUGCCUUGCGCCGGGAAACCACGCAAGGGAUGGUGUCAAAUUCGGCGAAACCUAAGCGCCCGCCCGGGCGUAUGGCAACGCAGAGCCAAGCUUCGGCGCCUGCGCCGAUGAAGGUGUAGAGACUAGACGGCACCCACCUAAGGCUAACGGUAUGGUGAAGGCAUAGUCUAGGGAGCGGCGAAAGUCACACAAACCGG, the reverse-splicing fitness stood at 0.0116.
Then GUGCCUUGCGCCGGGAAACCACGCAAGGGAUGGUGUCAAAUUCGGCGAAACCUAAGCGCCCGCCCGGGCGUAUGGCAACGCAGAGCCAAGCUUCGGCGCCUGCGCCGAUGAAGGUGUAGAGACUAGACGGCACCCACCUAAGGCUAACGGUAUGGUGAAGGCAUAGUCUAGGGAGGGGCGAAAGUCACACAAACCGG, with 0.00595.
